Test results from the supplement of paper PMC11316812.
± gives the standard deviation of the averaged measurements.

Assays:
MCF7 = experiment: percentage of EdU-negative (G0-arrested) nuclei per well, 72 h; higher = more G0 arrest; conditions: reference: sequence is the full UniProt precursor, the tested protein was the secreted form or ectodomain
hTERT-HMEC = experiment: as above; conditions: reference: sequence is the full UniProt precursor, the tested protein was the secreted form or ectodomain
[1] = protein concentration 0.0225 µM
[2] = protein concentration 0.0185 µM
[3] = protein concentration 0.03125 µM
[4] = protein concentration 0.3125 µM
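Further: secreted proteins added to cultured cells, EdU pulse at the end, nuclei found by Hoechst imaging, EdU status from nuclear versus surrounding ring intensity ratio, PBS as neutral control.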

Row | Sequence | percentage of EdU-negative (MCF7; [1]) [%] | percentage of EdU-negative (MCF7; protein concentration 0.225 µM) [%] | percentage of EdU-negative (hTERT-HMEC; [1]) [%] | percentage of EdU-negative (hTERT-HMEC; protein concentration 0.225 µM) [%] | other results
1 | MAAHLLPICALFLTLLDMAQGFRGPLLPNRPFTTVWNANTQWCLERHGVDVDVSVFDVVANPGQTFRGPDMTIFYSSQLGTYPYYTPTGEPVFGGLPQNASLIAHLARTFQDILAAIPAPDFSGLAVIDWEAWRPRWAFNWDTKDIYRQRSRALVQAQHPDWPAPQVEAVAQDQFQGAARAWMAGTLQLGRALRPRGLWGFYGFPDCYNYDFLSPNYTGQCPSGIRAQNDQLGWLWGQSRALYPSIYMPAVLEGTGKSQMYVQHRVAEAFRVAVAAGDPNLPVLPYVQIFYDTTNHFLPLDELEHSLGESAAQGAAGVVLWVSWENTRTKESCQAIKEYMDTTLGPFILNVTSGALLCSQALCSGHGRCVRRTSHPKALLLLNPASFSIQLTPGGGPLSLRGALSLEDQAQMAVEFKCRCYPGWQAPWCERKSMW | 26.3 ± 0.86 | 26 ± 1.1 | 5.35 ± 0.22 | 5.55 ± 0.18 | 
2 | MAALLLGAVLLVAQPQLVPSRPAELGQQELLRKAGTLQDDVRDGVAPNGSAQQLPQTIIIGVRKGGTRALLEMLSLHPDVAAAENEVHFFDWEEHYSHGLGWYLSQMPFSWPHQLTVEKTPAYFTSPKVPERVYSMNPSIRLLLILRDPSERVLSDYTQVFYNHMQKHKPYPSIEEFLVRDGRLNVDYKALNRSLYHVHMQNWLRFFPLRHIHIVDGDRLIRDPFPEIQKVERFLKLSPQINASNFYFNKTKGFYCLRDSGRDRCLHESKGRAHPQVDPKLLNKLHEYFHEPNKKFFELVGRTFDWH |  |  |  |  | percentage of EdU-negative (MCF7; [2]): 21.85 ± 0.18%; percentage of EdU-negative (MCF7; protein concentration 0.185 µM): 26.7 ± 1.6%; percentage of EdU-negative (hTERT-HMEC; [2]): 4.41 ± 0.35%; percentage of EdU-negative (hTERT-HMEC; protein concentration 0.185 µM): 11.85 ± 0.08%
3 | MAALSRALGPLRTPAPPLWIGLFLVATGSQQSLAQPLPGNTTEATPRSLRASGSLCGPHAKAPYLCEATHEPAAARIRAQVPDTRWSRVGGQRFYSRVLSPLHRGPSGHTEASAQRSHMGKLKEPQPQDHKPGLGAS [Q6UXU0] | 27.9 ± 0.64 | 23.7 ± 2.8 | 5.38 ± 0.31 | 5.92 ± 0.84 | 
4 | MAAPALSWRLPLLILLLPLATSWASAAVNGTSQFTCFYNSRANISCVWSQDGALQDTSCQVHAWPDRRRWNQTCELLPVSQASWACNLILGAPDSQKLTTVDIVTLRVLCREGVRWRVMAIQDFKPFENLRLMAPISLQVVHVETHRCNISWEISQASHYFERHLEFEARTLSPGHTWEEAPLLTLKQKQEWICLETLTPDTQYEFQVRVKPLQGEFTTWSPWSQPLAFRTKPAALGKDTIPWLGHLLVGLSGAFGFIILVYLLINCRNTGPWLKKVLKCNTPDPSKFFSQLSSEHGGDVQKWLSSPFPSSSFSPGGLAPEISPLEVLERDKVTQLLLQQDKVPEPASLSSNHSLTSCFTNQGYFFFHLPDALEIEACQVYFTYDPYSEEDPDEGVAGAPTGSSPQPLQPLSGEDDAYCTFPSRDDLLLFSPSLLGGPSPPSTAPGGSGAGEERMPPSLQERVPRDWDPQPLGPPTPGVPDLVDFQPPPELVLREAGEEVPDAGPREGVSFPWSRPPGQGEFRALNARLPLNTDAYLSLQELQGQDPTHLV |  |  |  |  | percentage of EdU-negative (MCF7; [3]): 25.8 ± 3.7%; percentage of EdU-negative (MCF7; [4]): 26.1 ± 1.1%; percentage of EdU-negative (hTERT-HMEC; [3]): 4.64 ± 0.89%; percentage of EdU-negative (hTERT-HMEC; [4]): 4.91 ± 0.7%
5 | MAAPGSARRPLLLLLLLLLLGLMHCASAAMFMVKNGNGTACIMANFSAAFSVNYDTKSGPKNMTFDLPSDATVVLNRSSCGKENTSDPSLVIAFGRGHTLTLNFTRNATRYSVQLMSFVYNLSDTHLFPNASSKEIKTVESITDIRADIDKKYRCVSGTQVHMNNVTVTLHDATIQAYLSNSSFSRGETRCEQDRPSPTTAPPAPPSPSPSPVPKSPSVDKYNVSGTNGTCLLASMGLQLNLTYERKDNTTVTRLLNINPNKTSASGSCGAHLVTLELHSEGTTVLLFQFGMNASSSRFFLQGIQLNTILPDARDPAFKAANGSLRALQATVGNSYKCNAEEHVRVTKAFSVNIFKVWVQAFKVEGGQFGSVEECLLDENSMLIPIAVGGALAGLVLIVLIAYLVGRKRSHAGYQTI | 27.7 ± 2.6 | 28.6 ± 2.1 | 4.801 ± 0.044 | 7.68 ± 1.6 | 
6 | MAAPSGGWNGVGASLWAALLLGAVALRPAEAVSEPTTVAFDVRPGGVVHSFSHNVGPGDKYTCMFTYASQGGTNEQWQMSLGTSEDHQHFTCTIWRPQGKSYLYFTQFKAEVRGAEIEYAMAYSKAAFERESDVPLKTEEFEVTKTAVAHRPGAFKAELSKLVIVAKASRTEL [Q969H8] |  |  |  |  | percentage of EdU-negative (MCF7; [3]): 25.7 ± 1.8%; percentage of EdU-negative (MCF7; [4]): 24.42 ± 0.17%; percentage of EdU-negative (hTERT-HMEC; [3]): 4.64 ± 1%; percentage of EdU-negative (hTERT-HMEC; [4]): 5.57 ± 0.44%
7 | MAAPVPWACCAVLAAAAAVVYAQRHSPQEAPHVQYERLGSDVTLPCGTANWDAAVTWRVNGTDLAPDLLNGSQLVLHGLELGHSGLYACFHRDSWHLRHQVLLHVGLPPREPVLSCRSNTYPKGFYCSWHLPTPTYIPNTFNVTVLHGSKIMVCEKDPALKNRCHIRYMHLFSTIKYKVSISVSNALGHNATAITFDEFTIVKPDPPENVVARPVPSNPRRLEVTWQTPSTWPDPESFPLKFFLRYRPLILDQWQHVELSDGTAHTITDAYAGKEYIIQVAAKDNEIGTWSDWSVAAHATPWTEEPRHLTTEAQAAETTTSTTSSLAPPPTTKICDPGELGSGGGPSAPFLVSVPITLALAAAAATASSLLI | 25 ± 1.9 | 27.1 ± 2.6 | 5 ± 0.54 | 6.52 ± 0.21 | 
